Primed or numbered codes have the meaning given here. Where no end group is shown, it is not given here. [ ]: non-standard residue; d: D form. The star is where a group is joined. Psu″ = N-propylsuccinimide on the Cys thiol (Cys(Psu)), CCCN1C(=O)CC(*)C1=O; Psu(3) = N-propylsuccinimide on Cys S, CCCN1C(=O)CC(*)C1=O; Hsu = N-hexylsuccinimide on Cys S, CCCCCCN1C(=O)CC(*)C1=O; Psu = N-propylsuccinimide (on the Cys sulfur); 2Nal = N[C@@H](Cc1ccc2ccccc2c1)C(=O)O; d2Nal = N[C@H](Cc1ccc2ccccc2c1)C(=O)O; Cyclohexanecarbonyl = O=C(C1CCCCC1)*; Myristoyl = CCCCCCCCCCCCCC(=O)*; Cys(Psu) = not defined here; Decanoyl = CCCCCCCCCC(=O)*; Ac6c = NC1(C(=O)O)CCCCC1; Nle = CCCC[C@H](N)C(=O)O; Orn = NCCC[C@H](N)C(=O)O; Hexanoyl = CCCCCC(=O)*; Aib = CC(C)(N)C(=O)O

As usually defined, the Ki is a dissociation constant, usually derived from enzyme kinetics or from competition with a known ligand.

Sequences and labels used below:
T1: human recombinant GIP receptor (human, UniProt P48546 22-466)
T1 construct: whole, on cells; Assayed as washed membranes of CHO-K1 cells expressing the receptor; also called hGIP receptor
T1 sequence (looked up): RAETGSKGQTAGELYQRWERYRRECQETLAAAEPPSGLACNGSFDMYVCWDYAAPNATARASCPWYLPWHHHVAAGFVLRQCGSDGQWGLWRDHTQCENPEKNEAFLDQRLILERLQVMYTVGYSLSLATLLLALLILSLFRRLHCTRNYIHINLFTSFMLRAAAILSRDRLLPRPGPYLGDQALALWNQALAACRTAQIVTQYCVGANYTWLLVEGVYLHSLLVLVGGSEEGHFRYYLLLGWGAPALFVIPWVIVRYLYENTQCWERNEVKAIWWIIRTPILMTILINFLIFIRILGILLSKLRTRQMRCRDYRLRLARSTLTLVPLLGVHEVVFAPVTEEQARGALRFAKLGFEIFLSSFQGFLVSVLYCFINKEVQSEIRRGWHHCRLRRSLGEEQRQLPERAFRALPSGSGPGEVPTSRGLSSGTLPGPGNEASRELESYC

B1: [Ac-A6c^7, Cys(Psu)^31]hGIP(7-31)-NH2 (peptide)
peptide: XSDYSIAMDKIHQQDFVNWLLAQKC
modifications: N-terminal acetyl (Ac); A6c at 7; Cys(Psu) at 31; hGIP numbering; C-terminal amide
notes: Synthetic analogue of human GIP
B2: (Ac-4Hyp^3, A6c^7)hGIP(3-42)-OH (peptide)
peptide: XGTFXSDYSIAMDKIHQQDFVNWLLAQKGKKNDWKHNITQ
modifications: N-terminal acetyl (Ac); 4Hyp (4-hydroxyproline) at 3; A6c at 7; hGIP numbering; C-terminal free acid
notes: as for B1
B3: (Ac-A6c^7, Gln^43)hGIP(7-43)-OH (peptide)
peptide: XSDYSIAMDKIHQQDFVNWLLAQKGKKNDWKHNITQQ
modifications: N-terminal acetyl (Ac); A6c at 7; added Gln at 43; hGIP numbering; C-terminal free acid
notes: Synthetic analogue of human GIP with an added residue 43
B4: (Ac-A6c^7, Cys(Psu)^31]hGIP(7-34)-NH2 (peptide)
peptide: XSDYSIAMDKIHQQDFVNWLLAQKCKKN
modifications: N-terminal acetyl (Ac); A6c at 7; Cys(Psu) at 31; hGIP numbering; C-terminal amide
notes: as for B1
B5: (4Hppa^2, 4Hyp^3, A6c^7)hGIP(2-42)-OH (peptide)
peptide: XXGTFXSDYSIAMDKIHQQDFVNWLLAQKGKKNDWKHNITQ
modifications: 4Hppa (3-(4-hydroxyphenyl)propionic acid) at 2; 4Hyp at 3; A6c at 7; hGIP numbering; C-terminal free acid
notes: as for B1
B6: [Ac-Phe^6, A6c^7, Cys(Psu)^31]hGIP(6-31)-NH2 (peptide)
peptide: FXSDYSIAMDKIHQQDFVNWLLAQKC
modifications: N-terminal acetyl (Ac) on Phe 6; A6c at 7; Cys(Psu) at 31; hGIP numbering; C-terminal amide
notes: as for B1
B7: [Ac-A6c^7, Orn^31(N-C(O)-(CH2)12-CH3)]hGIP(7-42)-OH (peptide)
peptide: Ac-[Ac6c]SDYSIAMDKIHQQDFVNWLLAQK[Orn](Myristoyl)KKNDWKHNITQ-OH
notes: Synthetic analogue of human GIP; also called [Ac-Ac6c^7, Orn(N-C(O)-(CH2)12-CH3)^31]hGIP(7-42)-OH
B8: (A5c^7, Nle^14)hGIP(6-30)-NH2 (peptide)
peptide: FXSDYSIAXDKIHQQDFVNWLLAQK
modifications: A5c (1-amino-1-cyclopentanecarboxylic acid) at 7; Nle (norleucine) at 14; hGIP numbering; C-terminal amide
notes: as for B1

This experiment deals with T1, human recombinant GIP receptor. Description: radioligand competition, [125I]GIP on membranes of CHO-K1 cells expressing human GIP receptor.
Consider FISDY[Aib]IA[Nle]DKIHQQDFVNWLLAQK-NH2 (Synthetic analogue of human GIP) [(Aib^11, Nle^14)hGIP(6-30)-NH2], for which the Ki turned out to be 170 nM. Regarding B1, the Ki worked out at 48.3 nM. B2: the Ki stood at 546 nM. As to Ac-[Ac6c]SDYSIAMDKIHQQDFVNWLLAQK[d2Nal]KKNDWKHNITQ-OH (X stands for the non-natural residues) [(Ac-A6c^7, D-2Nal^31)hGIP(7-42)-OH], the Ki was found to be 159 nM. On to Hexanoyl-SDYSIAMDKIHQQDFVNWLLAQK[Cys(Psu)]KKNDWKHNITQ-OH (reading uncertain, Synthetic analogue of human GIP) [[CH3-(CH2)4-C(O)-Ser^8, Cys(Psu)^31]hGIP(8-42)-OH], for which the Ki is 205 nM. In the case of Cyclohexanecarbonyl-SDYSIAMDKIHQQDFVNWLLAQK[Cys(Psu)]KKNDWKHNITQ-OH (reading uncertain, Synthetic analogue of human GIP) [[Chc-Ser^8, Cys(Psu)^31]hGIP(8-42)-OH], the Ki came out at 403 nM. Regarding F[Ac6c]SDYSIAMDKIHQQDFVNWLLAQKC(Psu(3))KKNDWKHNITQ-OH (Synthetic analogue of human GIP) [[A6c^7, Cys(Psu)^31]hGIP(6-42)-OH], the Ki came out at 277 nM. As to Ac-F[Ac6c]SDYSIAMDKIHQQDFVNWLLAQKC(Psu″)KKNDWKHNITQ-OH (Synthetic analogue of human GIP) [[Ac-Phe^6, A6c^7, Cys(Psu)^31]hGIP(6-42)-OH], the Ki is 574 nM. For B3 the value was 7.92 nM.

In the case of FXSDYSIAMDKIHQQDFVNWLLAQK (N-terminal acetyl (Ac) on Phe 6; A6c at 7; hGIP numbering; C-terminal amide, Synthetic analogue of human GIP) [(Ac-Phe^6, A6c^7)hGIP(6-30)-NH2], the inhibition constant (Ki) was 68.5 nM. For FXSDYSIAMDKIHQQDFVNWLLAQKC (A6c at 7; Cys(Psu) at 31; hGIP numbering; C-terminal amide, Synthetic analogue of human GIP) [[A6c^7, Cys(Psu)^31]hGIP(6-31)-NH2] the value was 101 nM. B4: the Ki turned out to be 115 nM.

In the case of B5, the Ki worked out at 294 nM. Consider XPGTFISDYSIAXDKIHQQDFVNWLLAQKGKKNDWKHNITQ (4Hppa at 2; Pro at 3; Nle at 14; hGIP numbering; C-terminal free acid, Synthetic analogue of human GIP) [(4Hppa^2, Pro^3, Nle^14)hGIP(2-42)-OH], for which the inhibitory constant (Ki) came to 800 nM. Consider XEGTFISDYXIAMDKIHQQDFVNWLLAQKGKKNDWKHNITQ (4Hppa at 2; A6c at 11; hGIP numbering; C-terminal free acid, Synthetic analogue of human GIP) [(4Hppa^2, A6c^11)hGIP(2-42)-OH], for which the Ki was 91.8 nM. For the molecule XEGTFISDYSIXMDKIHQQDFVNWLLAQKGKKNDWKHNITQ (4Hppa at 2; Aib at 13; hGIP numbering; C-terminal free acid, Synthetic analogue of human GIP) [(4Hppa^2, Aib^13)hGIP(2-42)-OH)], the Ki was 12.9 nM. For the molecule XEGTFISDYSIAXDKIHQQDFVNWLLAQKGKKNDWKHNITQ (4Hppa at 2; A6c at 14; hGIP numbering; C-terminal free acid, Synthetic analogue of human GIP) [(4Hppa^2, A6c^14)hGIP(2-42)-OH], the Ki was 50.4 nM. On to B6, for which the Ki was found to be 77.5 nM. For Decanoyl-[Ac6c]SDYSIAMDKIHQQDFVNWLLAQKGKK[Orn](Decanoyl)DWKHNITQ-OH (Synthetic analogue of human GIP) [[CH3-(CH2)8-C(O)-A6c^7, Orn^34(N-C(O)-(CH2)8-CH3)]hGIP(7-42)-OH] the value was 164 nM; for Ac-[Ac6c]SDYSIAMDKIHQQDFVNWLLAQK[2Nal]KKNDWKHNITQ-OH (Synthetic analogue of human GIP) [(Ac-A6c^7, 2Nal^31)hGIP(7-42)-OH], 194 nM; for Ac-[Ac6c]SDYSIAMDKIHQQDFVNWLLAQKC(Psu(3))KKNDWKHNITQ-OH (Synthetic analogue of human GIP) [[Ac-A6c^7, Cys(Psu)^31]hGIP(7-42)-OH], 963 nM.

Regarding Ac-[Ac6c]SDYSIAMDKIHQQDFVNWLLAQKGKKNDWKHNC(Psu″)TQ-OH (Synthetic analogue of human GIP) [[Ac-A6c^7, Cys(Psu)^40]hGIP(7-42)-OH], the Ki stood at 532 nM. Turning to Ac-[Ac6c]SDYSIAMDKIHQQDFVNWLLAQKGC(Psu)KNDWKHNITQ-OH (Synthetic analogue of human GIP) [[Ac-A6c^7, Cys(Psu)^32]hGIP(7-42)-OH], the Ki amounted to 687 nM.

Turning to Ac-[Ac6c]SDYSIAMDKIHQQDFVNWLLAQKGKKNDC(Psu)KHNITQ-OH (Synthetic analogue of human GIP) [[Ac-A6c^7, Cys(Psu)^36]hGIP(7-42)-OH], the Ki was 442 nM. On to Ac-[Ac6c]SDYSIAMDKIHQQDFVNWLLAQKGKKC(Psu)DWKHNITQ-OH (Synthetic analogue of human GIP) [[Ac-A6c^7, Cys(Psu)^34]hGIP(7-42)-OH], for which the Ki was 735 nM. For Ac-[Ac6c]SDYSIAMDKIHQQDFVNWLLAQKGKC(Psu)NDWKHNITQ-OH (Synthetic analogue of human GIP) [[Ac-A6c^7, Cys(Psu)^33]hGIP(7-42)-OH] the value was 417 nM; for Ac-[Ac6c]SDYSIAMDKIHQQDFVNWLLAQKGKKNDWKC(Psu″)NITQ-OH (Synthetic analogue of human GIP) [[Ac-A6c^7, Cys(Psu)^38]hGIP(7-42)-OH], 333 nM. Turning to Ac-[Ac6c]SDYSIAMDKIHQQDFVNWLLAQKGKKNDWC(Psu″)HNITQ-OH (Synthetic analogue of human GIP) [[Ac-A6c^7, Cys(Psu)^37]hGIP(7-42)-OH], the Ki came out at 127 nM. For Ac-[Ac6c]SDYSIAMDKIHQQDFVNWLLAQKGKKNC(Psu)WKHNITQ-OH (Synthetic analogue of human GIP) [[Ac-A6c^7, Cys(Psu)^35]hGIP(7-42)-OH] the value was 486 nM; for Ac-[Ac6c]SDYSIAMDKIHQQDFVNWLLAQKGKKNDWKHC(Psu″)ITQ-OH (Synthetic analogue of human GIP) [[Ac-A6c^7, Cys(Psu)^39]hGIP(7-42)-OH], 75.7 nM. Ac-DYSIAMDKIHQQDFVNWLLAQKGK[Cys(Psu)]NDWKHNITQ-OH (reading uncertain, Synthetic analogue of human GIP) [[Ac-Asp^9, Cys(Psu)^33]hGIP(9-42)-OH]: the Ki was 472 nM. Regarding FXSDYSIAXDKIHQQDFVNWLLAQK (A6c at 7; Nle at 14; hGIP numbering; C-terminal amide, Synthetic analogue of human GIP) [(A6c^7, Nle^14)hGIP(6-30)-NH2], the Ki was 212 nM. Take B7: the Ki turned out to be 178 nM. For the molecule [Ac6c]SDYSIAMDKIHQQDFVNWLLAQKGKK[Orn](Decanoyl)DWKHNITQ-OH (Synthetic analogue of human GIP) [[A6c^7, Orn^34(N-C(O)-(CH2)8-CH3)]hGIP(7-42)-OH], the Ki came out at 274 nM. As for B8, the Ki came to 734 nM.

Regarding [Ac6c]SDYSIAMDKIHQQDFVNWLLAQKC(Hsu)KKNDWKHNITQ-OH (Synthetic analogue of human GIP) [[A6c^7, Cys(Hsu)^31]hGIP(7-42)-OH], the Ki came out at 772 nM.

(Values after patent publication US20110136724A1 (IPSEN PHARMA S A S, published 2011).)
